Assay results from US20140298544A1, “Engineered PEP carboxylase variants for improved plant productivity” (PIONEER HI BRED INTERNATIONAL INC, priority 2011, published 2014).
Read-outs that look alike come from different tables or passages of the source.

Assays:
maize C4 PEPC [1] = target: T1, maize C4 PEPC (Zea mays, UniProt P04711, A239D/A736P/F800W/F886Y/H119R/H347Q/P482S/R192G/R495K/R556K/R807K/S350A/V555I); test: Kinetic and regulatory properties of PEPC variants (expressed in E. coli); format: biochemical; conditions: relative to wild type
T1 construct: thioredoxin; made in house; host or cells: E. coli Rosetta gami 2 BL21 DE3 pLYS S
Source text: (§1) Libraries of modified PEPC polynucleotides were generated using recursive sequence recombination methods (Stemmer, Proc. Natl. Acad. Sci USA 91:10747-10751; Ness, et. al., Nature Biotechnology 20:1251-1255), also known as gene shuffling methods. These libraries incorporated diversity from related PEPC enzymes and also incorporated other designed and random changes. The starting polynucleotide sequence in which the diversity was incorporated was the maize C4 PEPC as shown in SEQ ID NO: 25. Each PEPC variant was expressed in E. coli as a thioredoxin fusion using the pET 32 expression vector (Novagen) with the E. coli expression strain Rosetta gami 2 BL21 DE3 pLYS S. Cultures expressing the variants were grown in 96-well culture blocks, lysed, and then PEPC activity and PEPC protein abundance were determined. The variants with high specific activity were subjected to further rounds of shuffling, for a total of 3 rounds. Examples of nucleotide and amino acid sequences of PEPC variants obtained with this method are SEQ ID NO: 4 to 24.
(§2) Detailed kinetic studies of PEPC variants were done in accordance with methods known in the art. See, for example, Tovar-Mendez et al. (2000) Plant Physiol. 123: 149-160; Tover-Mendez et al. (1998) Biochem. J. 332: 633-642.
(§3) PEPC variants had several improved properties in comparison with wild type PEPC, including greater affinity (lower S0.5 values) with respect to the bicarbonate substrate, greater Kcat/S0.5 values with the bicarbonate or PEP substrates, greater activation (lower A0.5 values) with […] or glycine as activators and greater Ki values with malate as inhibitor.

maize C4 PEPC [2] = test: as above; format: biochemical
Source text: as §1, §2, §3

B1: 3D37-F3: maize C4 PEPC variant, 10 amino acid substitutions, SEQ ID NO: 10 (protein)
chain: MASTKAPGPGEKHHSIDAQLRQLVPGKVSEDDKLIEYDALLVDRFLNILQDLHGPSLREFVQECYEVSADYEGKGDTTKLGELGAKLTGLAPADAILVASSILHMLNLANLAEEVQIARRRRNSKLKKGGFADEGSATTESDIEETLKRLVSEVGKSPEEVFEALKNQTVDLVFTAHPTQSARRSLLQKNAGIRNCLTQLNAKDITDDDKQELDEALQREIQAAFRTDEIRRAQPTPQDEMRYGMSYIHETVWKGVPKFLRRVDTALKNIGINERLPYNVSLIRFSSWMGGDRDGNPRVTPEVTRDVCLLARMMAANLYIDQIEELMFELSMWRCNDELRVRAEELQSSAGSKVTKYYIEFWKQIPPNEPYRVILGHVRDKLYNTRERARHLLASGVSEISAESSFTSIEEFLEPLELCYKSLCDCGDKAIADGSLLDLLRQVFTFGLSLVKLDIRQESERHTDVIDAITTHLGIGSYREWSEDKRQEWLLSELKGKRPLLPPDLPQTDEIADVIGAFHVLAELPPDSFGPYIISMATAPSDVLAVELLQRECGIKQPLPVVPLFERLADLQSAPASVERLFSVDWYMDRIKGKQQVMVGYSDSGKDAGRLSAAWQLYRAQEEMAQVAKRYGVKLTLFHGRGGTVGRGGGPTHLAILSQPPDTINGSIRVTVQGEVIEFCFGEEHLCFQTLQRFTAATLEHGMHPPVSPKPEWRKLMDEMAVVATEEYRSVVVKEPRFVEYFRSATPETEYGRMNIGSRPAKRRPGGGITTLRAIPWIFSWTQTRFHLPVWLGVGAAFKWAIDKDVKNFQVLKEMYNEWPFFRVTLDLLEMVFAKGDPGIAGLYDELLVAEELKPFGKQLRDKYVETQQLLLQIAGHKDILEGDPYLKQGLVLRNPYITTLNVFQAYTLKRIRDPNFKVTPQPPLSKEFADENKPAGLVKLNPASEYPPGLEDTLILTMKGIAAGMQNTG
modifications: shuffled variant
affinity (S0.5 value) for bicarbonate, in words (maize C4 PEPC [1]): higher affinity
kcat/S0.5 Fold incr. (maize C4 PEPC [2]): 70.1 Fold incr.
PEP, no activators kcat/S0.5 (maize C4 PEPC [2]; PEP substrate, no activators): 71500 M⁻¹ s⁻¹
PEP, no activators kcat/S0.5 % wt (maize C4 PEPC [2]; PEP substrate, no activators, relative to wild type): 210 % wt
PEP, with activators kcat/S0.5 (maize C4 PEPC [2]; PEP substrate, with activators): 5.01e+06 M⁻¹ s⁻¹
PEP, with activators kcat/S0.5 % wt (maize C4 PEPC [2]; PEP substrate, with activators, relative to wild type): 205 % wt
Glc-6-P Vmax Fold incr (maize C4 PEPC [2]; activator Glc-6-P): 7.2 Fold incr
EC50 (maize C4 PEPC [2]; activator Glc-6-P, read-out: Glc-6-P A0.5): 4460 µM
Glc-6-P A0.5 % wt (maize C4 PEPC [2]; activator Glc-6-P, relative to wild type): 66 % wt
Glycine Vmax Fold incr (maize C4 PEPC [2]; activator glycine): 5.8 Fold incr
EC50 (maize C4 PEPC [2]; activator glycine, read-out: Glycine A0.5): 930 µM
Glycine A0.5 % wt (maize C4 PEPC [2]; activator glycine, relative to wild type): 26 % wt
HCO3 S0.5 (maize C4 PEPC [2]; bicarbonate substrate): 0.0167 mM
HCO3 kcat/S0.5 (maize C4 PEPC [2]; bicarbonate substrate): 3.512e+06 M⁻¹ s⁻¹
HCO3 kcat/S0.5 % wt (maize C4 PEPC [2]; bicarbonate substrate, relative to wild type): 166 % wt
Ki (maize C4 PEPC [2]; inhibitor malate): 2400 µM
Malate Ki % wt (maize C4 PEPC [2]; inhibitor malate, relative to wild type): 600 % wt
Ki for malate, in words (maize C4 PEPC [2]; relative to wild type): increased Ki
activation by glucose-6-phosphate, in words (maize C4 PEPC [2]; relative to wild type): increased activation
activation by glycine, in words (maize C4 PEPC [2]; relative to wild type): increased activation
